The values that follow come from the RNAGym collection of RNA variant scans (doi:10.7554/elife.90254).

Sequences and labels used below:
B1: LINE1-full (parent)
chain: UACGUAGGUGGUUUUCCCCUGAUAGUGCUAAGGGGGCCUGGAAGUUUGGACUGGGCAGAGCUCAACACAGCGUGGCAAAGUGGCUGUGGCUAGACUGCCUCUCUGGAUUCCUCGUCACUCAGCAGGGCAUCUCUGAGAGAAAUGCC

Variants of B1 are the subject of this series. Nature of the series: self-cleavage, relative activity (ratio to wild type); higher = more cleavage; in vitro, sequencing; the parent is a self-cleaving ribozyme.
Regarding C3U A121U, the self-cleavage stood at 1.41. Take C3U U52G: the self-cleavage was 1.17. Take C3U U134C: the self-cleavage came out at 1.05.

U1C G70A: the self-cleavage turned out to be 0.04. For A2G A24U the value was 1.34; for A2G U104C, 0.84; for A2G A121G, 1.44.

Consider U1C C128A, for which the self-cleavage was found to be 0.79. Turning to U1C U85G, the self-cleavage amounted to 0.08. In the case of U1C U85A, the self-cleavage is 0.03.

Take A2G G32A: the self-cleavage stood at 0. For U1C G82A the value was 1.3. As to A2G A30G, the self-cleavage was 0.87. For C3U U96A the value was 0.07; for A2C U73A, 1.29. As for A2G A31G, the self-cleavage was found to be 1. With G4A A124U the figure was 0.53.

As for U1A U96G, the self-cleavage came out at 0.

For A2G G34C, the self-cleavage stood at 0.75. With A2G U39C, the self-cleavage worked out at 0.32. With C3U A69U the figure was 0.13; with U1C G10A, 0.95; with U1C U45A, 0.84. As to C3U U81C, the self-cleavage is 0.79. With C3G the figure was 1.34; with C3U, 0.83; with C3A, 0.69. For A2G U62G, the self-cleavage amounted to 0.37. On to A2U U112C, for which the self-cleavage is 1.4. With U1G A138G the figure was 1.57; with U1A U112C, 1.03. Turning to U1C A140G, the self-cleavage amounted to 0.99. Take A2C G89A: the self-cleavage was determined as 0.05.

Take C3A A140U: the self-cleavage amounted to 0.9. For A2G A94G, the self-cleavage worked out at 0.25. Take A2G A94U: the self-cleavage turned out to be 0.29. With C3A A121G the figure was 0.53. As for U1G C37G, the self-cleavage is 0.49. In the case of C3A U52G, the self-cleavage is 1.31. On to C3A U104A, for which the self-cleavage is 0.7. On to C3U A107U, for which the self-cleavage came out at 1.17.

G4A A43G: the self-cleavage was determined as 0.67. In the case of A2U U96C, the self-cleavage worked out at 0.31.

Consider A2C U102C, for which the self-cleavage turned out to be 1.65. With U1C A77G the figure was 1.32. For the variant A2G A65G, the self-cleavage was 0.2. On to A2G A65U, for which the self-cleavage was determined as 0.66.

In the case of U1C A24C, the self-cleavage came out at 0.91. As for U1C A24G, the self-cleavage is 1.15.

For the variant C3U U100A, the self-cleavage came to 0.68. In the case of A2G A141U, the self-cleavage is 0.24. In the case of U1C U81G, the self-cleavage is 1.01. With U1C U81C the figure was 0.85; with A2G A140C, 0.51.

As to C3A A142G, the self-cleavage was determined as 0.82. With A2G A138U, the self-cleavage amounted to 0.69. Turning to A2G A138G, the self-cleavage worked out at 0.98.

Turning to U1C A2G, the self-cleavage worked out at 0.72. In the case of U1C A57G, the self-cleavage was determined as 0.56.

For the variant C3A U13A, the self-cleavage was determined as 0.79. With A2G U96A, the self-cleavage was 0.22. For the variant A2C U5C, the self-cleavage is 1.12. As to A2U U29C, the self-cleavage stood at 0.98.

In the case of A2G U45C, the self-cleavage is 1.19. Take A2U U85A: the self-cleavage was determined as 0.04.

Take A2G U130A: the self-cleavage is 1.72. Consider A2G A136U, for which the self-cleavage amounted to 0.77. Take U1C A30G: the self-cleavage is 0.73. With C3G U132A the figure was 0.24; with A2U G11A, 0.92. Take A2U U14C: the self-cleavage was 0.83. For G4A A24G, the self-cleavage amounted to 0.75. As for C3U U9C, the self-cleavage worked out at 1.53.

For the variant U1A U134C, the self-cleavage is 0.47. Regarding U1C C37G, the self-cleavage was 0.73. Turning to U1C U52A, the self-cleavage worked out at 0.88.

U1C C19U: the self-cleavage came out at 0.66. As to U1C G93A, the self-cleavage worked out at 0.09. Turning to U1C A121G, the self-cleavage worked out at 0.79. Consider U1C A121U, for which the self-cleavage is 1.06. As for C3A U134C, the self-cleavage was determined as 0.92. On to A2G A129U, for which the self-cleavage turned out to be 0.62. In the case of U1C U62C, the self-cleavage stood at 0.12. As to U1C U62A, the self-cleavage came out at 0.05.

U1C U14A: the self-cleavage was 0.81.

With U1C U14C, the self-cleavage stood at 0.93.

Regarding U1C U20A, the self-cleavage worked out at 0.88.

Regarding A2G G74A, the self-cleavage turned out to be 0.69. For U1C A31C the value was 1.33.

In the case of C3U A65G, the self-cleavage is 0.17. For A2U A92U the value was 0.32; for U1C U109A, 2.04; for U1C U109C, 0.42. U1C U15C: the self-cleavage worked out at 0.92.

In the case of A2U C76U, the self-cleavage amounted to 1.07. For U1C A79G the value was 0.86; for A2G G72U, 0.53. With A2G G72A the figure was 1.15; with C3A A77G, 1.17; with U1C U100C, 1.2. For A2U U12C, the self-cleavage stood at 0.64. Consider U1C U115C, for which the self-cleavage was 1.19. On to A2U G122A, for which the self-cleavage was 0.79. For the variant U1C C103U, the self-cleavage came out at 0.29. Regarding A2U C113A, the self-cleavage came out at 0.63. For A2U U109C the value was 1.74; for A2U A67U, 0.05. As to A2U A67C, the self-cleavage was 0.12.

For A2G A59U, the self-cleavage came out at 0.8. U1C U108C: the self-cleavage was determined as 0.67. Turning to A2G G4U, the self-cleavage was 0.4. With U1C G4U, the self-cleavage was found to be 0.78. Take U1A U102A: the self-cleavage was 0.48.

As to C3U G93A, the self-cleavage was 0. Regarding A2U U47C, the self-cleavage is 0.43. For the variant G4A A94U, the self-cleavage worked out at 0.27.

For the variant C3U U5C, the self-cleavage came out at 1.16. For the variant U1C A107G, the self-cleavage was 0.75.

In the case of A2G U26A, the self-cleavage came out at 0.84. In the case of A2G U26C, the self-cleavage stood at 0.88. On to U1C C56U, for which the self-cleavage worked out at 0.07.

U1C A136U: the self-cleavage came to 1.15. In the case of U1C U39C, the self-cleavage came out at 0.95.

For the variant C3U G58U, the self-cleavage was found to be 0. In the case of A2U A142G, the self-cleavage stood at 1.15. With U1C G7A, the self-cleavage is 0.7. With U1C G125A the figure was 1.34. With A2U U102C the figure was 2.12; with U1C U143C, 1.18. With A2G U100C, the self-cleavage is 0.62.

With G4A A65G, the self-cleavage amounted to 0. As for C3U A42G, the self-cleavage came out at 1.22. Take C3U G7C: the self-cleavage amounted to 0. As for C3U A94G, the self-cleavage was determined as 0.54. With A2G C28U the figure was 0.72; with C3U U47A, 0.67; with C3A G106A, 0.57.

For U1C U130A, the self-cleavage turned out to be 0.83.

As for C3U C111U, the self-cleavage amounted to 0.65.

As for A2G A50U, the self-cleavage amounted to 0.18. A2G A50G: the self-cleavage came to 0.39. A2U A65U: the self-cleavage was found to be 0.23. For the variant C3G A30U, the self-cleavage is 0.91. Turning to A2U U52A, the self-cleavage is 0.92. For C3U A6U the value was 0.2; for A2U A77G, 1.77; for A2C U143A, 1.85.

As for A2U U46A, the self-cleavage was 0.51. Turning to U1C A138G, the self-cleavage was found to be 0.7. With C3A G122A, the self-cleavage stood at 1.51. For the variant A2C U85G, the self-cleavage is 0.16.

Consider G4A A79G, for which the self-cleavage came out at 1.3. On to G4A A79U, for which the self-cleavage worked out at 0.64. With U1C U119A, the self-cleavage stood at 1.47.

Regarding A2G U115A, the self-cleavage came to 1.08. In the case of A2G U46A, the self-cleavage was found to be 0.3. For A2G U46C, the self-cleavage turned out to be 0.72. Regarding C3U U14C, the self-cleavage worked out at 0.81. As for U1C U87C, the self-cleavage was 0.1. For the variant U1C G34A, the self-cleavage worked out at 0.75.

Regarding A2G G44U, the self-cleavage came out at 0.87.

Turning to A2U U100A, the self-cleavage worked out at 0.66.

Consider A2U U100C, for which the self-cleavage is 0.95.

As for G4A A136G, the self-cleavage came out at 0.86. With C3A G70A the figure was 0.08; with A2C A140G, 1.28.

For the variant C3A U112C, the self-cleavage was found to be 1.48.
